# In patent US20140141011A1 (SCHERING, published 2014):
# Several values for one entry are separate records, joined by “and”; a condition that tells them apart may be missing. Equal entries are not always repeated.
# B1: Rat anti-human TSLP antibody 23B12 (antibody, V domains shown)
# VH: EEKLQQSGDDLVRPGAAVKMSCKASGYIFTDYAMHWVKQRPGQGLEWIGTFIPLLDTSDYNQNFKGRATLTADKSSNTAYMELSRLTSEDSAVYYCARMGVTHSYVMDAWGQGASVTVSS
# VL: DIVLTQSPATLSVTPGESVSLSCRASQPISISVHWFQQKSNESPRLLIKFASQSISGIPSRFSGSGSGTDFTLNINRVESEDFSVYYCQQTFSLPYTFGTGTKLELKR
# notes: Parental rat monoclonal antibody purified from hybridoma supernatant; the rat constant regions are not (a rat IgG2a isotype control is used beside it; the VL is of the kappa subclass); also called r23B12; rat 23B12
# B2: hu-cy: humanized 23B12 VL/VH on cynomolgus constant domains (antibody)
# heavy: QVQLVQSGAEVKKPGASVKVSCKASGYIFTDYAMHWVRQAPGQGLEWMGTFIPLLDTSDYNQNFKGRVTMTTDTSTSTAYMELRSLRSDDTAVYYCARMGVTHSYVMDAWGQGTLVTVSSASTKGPSVFPLAPSSRSTSESTAALGCLVKDYFPEPVTVSWNSGSLTSGVHTFPAVLQSSGLYSLSSVVTVPSSSLGTQTYVCNVNHKPSNTKVDKRVEIKTCGGGSKPPTCPPCPAPELLGGPSVFLFPPKPKDTLMISRTPEVTCVVVDVSQEDPDVKFNWYVNGAEVHHAQTKPRETQYNSTYRVVSVLTVTHQDWLNGKEYTCKVSNKALPAPIQKTISKDKGQPREPQVYTLPPSREELTKNQVSLTCLVKGFYPSDIVVEWESSGQPENTYKTTPPVLDSDGSYFLYSKLTVDKSRWQQGNVFSCSVMHEALHNHYTQKSLSLSPGK
# light: EIVLTQSPGTLSLSPGERATLSCRASQPISISVHWYQQKPGQAPRLLIYFASQSISGIPDRFSGSGSGTDFTLTISRLEPEDFAVYYCQQTFSLPYTFGQGTKVEIKRTVAAPSVFIFPPSEDQVKSGTVSVVCLLNNFYPREASVKWKVDGVLKTGNSQESVTEQDSKDNTYSLSSTLTLSSTDYQSHNVYACEVTHQGLSSPVTKSFNRGEC
# notes: also called hu-cy23B12; Cynoized anti hTSLP mAb 23B12 (huV-CynoC chimera)
# B3: Cyno-ized anti-human TSLP 23B12 antibody (antibody)
# heavy: SQVQLVESGGGVVQPGRSLRLSCAASGYIFTDYAMHWVRQAPGKGLEWVATFIPLLDTSDYNQNFKGRFTISRDNSKNTLYLQMNSLRAEDTAVYYCARMGVTHSYVMDAWGQGTLVTVSSASTKGPSVFPLAPSSRSTSESTAALGCLVKDYFPEPVTVSWNSGSLTSGVHTFPAVLQSSGLYSLSSVVTVPSSSLGTQTYVCNVNHKPSNTKVDKRVEIKTCGGGSKPPTCPPCPAPELLGGPSVFLFPPKPKDTLMISRTPEVTCVVVDVSQEDPDVKFNWYVNGAEVHHAQTKPRETQYNSTYRVVSVLTVTHQDWLNGKEYTCKVSNKALPAPIQKTISKDKGQPREPQVYTLPPSREELTKNQVSLTCLVKGFYPSDIVVEWESSGQPENTYKTTPPVLDSDGSYFLYSKLTVDKSRWQQGNVFSCSVMHEALHNHYTQKSLSLSPGK
# light: DIQMTQSPSSLSASVGDRVTITCRASQPISISVHWYQQKPGKAPKLLIYFASQSISGVPSRFSGSGSGTDFTLTISSLQPEDFATYYCQQTFSLPYTFGQGTKVEIKRTVAAPSVFIFPPSEDQVKSGTVSVVCLLNNFYPREASVKWKVDGVLKTGNSQESVTEQDSKDNTYSLSSTLTLSSTDYQSHNVYACEVTHQGLSSPVTKSFNRGEC
# notes: Rat 23B12 CDRs on human VL kappa-I / VH-III frameworks fused to cynomolgus IgG constant domains, produced in CHO cells; also called cy23B12; Cynoized anti hTSLP mAb 23B12 (782+MAFA19/781MAFA7)
# B4: cy-hu: cyno-ized 23B12 VL/VH on human constant domains (antibody)
# heavy: not shown
# light: DIQMTQSPSSLSASVGDRVTITCRASQPISISVHWYQQKPGKAPKLLIYFASQSISGVPSRFSGSGSGTDFTLTISSLQPEDFATYYCQQTFSLPYTFGQGTKVEIKRTVAAPSVFIFPPSDEQLKSGTASVVCLLNNFYPREAKVQWKVDNALQSGNSQESVTEQDSKDSTYSLSSTLTLSKADYEKHKVYACEVTHQGLSSPVTKSFNRGEC
# notes: also called cy-hu23B12; Cynoized anti hTSLP mAb 23B12 (782+hIgG1/781hukappa)
# B5: Humanized anti hu TSLP mAb 23B12 (VL Y49) (antibody, human IgG1, kappa)
# heavy: not shown
# light: EIVLTQSPGTLSLSPGERATLSCRASQPISISVHWYQQKPGQAPRLLIYFASQSISGIPDRFSGSGSGTDFTLTISRLEPEDFAVYYCQQTFSLPYTFGQGTKVEIKRTVAAPSVFIFPPSDEQLKSGTASVVCLLNNFYPREAKVQWKVDNALQSGNSQESVTEQDSKDSTYSLSSTLTLSKADYEKHKVYACEVTHQGLSSPVTKSFNRGEC
# notes: also called hu23B12(VL Y49); hu23B12
# B6: Humanized anti hu TSLP mAb 23B12 (VL K49) (antibody, human IgG1, kappa, V domains shown)
# VH: QVQLVQSGAEVKKPGASVKVSCKASGYIFTDYAMHWVRQAPGQGLEWMGTFIPLLDTSDYNQNFKGRVTMTTDTSTSTAYMELRSLRSDDTAVYYCARMGVTHSYVMDAWGQGTLVTVSS
# VL: EIVLTQSPGTLSLSPGERATLSCRASQPISISVHWYQQKPGQAPRLLIKFASQSISGIPDRFSGSGSGTDFTLTISRLEPEDFAVYYCQQTFSLPYTFGQGTKVEIKR
# notes: Light chain variant of hu23B12 with K at position 49; human IgG1 / kappa; also called hu23B12(VL K49)
# Key:
# [1] = target: T1, Recombinant human TSLP, expressed in E. coli (human, UniProt Q969D9 29-159); experiment: KinExA, solution equilibrium, beads coated with biotinylated human TSLP; antigen R&D Systems 1398-TS; KinExA, not BIAcore
# T1 construct: also called human TSLP E. coli; E. coli-B (biotinylated)
# [2] = target: T1, Recombinant human TSLP, expressed in E. …; experiment: ELISA, TSLP coated on plate, antibody titrated; E. coli-B (biotinylated TSLP)
# [3] = target: T2, Recombinant human TSLP, expressed in HEK293 (human, UniProt Q969D9 29-159); experiment: ELISA, TSLP coated on plate, antibody titrated; HEK293
# T2 construct: also called human TSLP HEK293; HEK293-B (biotinylated)
# [4] = target: T3, Human TSLP (expression host not stated) (human, UniProt Q969D9 29-159); experiment: ELISA, mean of all 5 rows on human TSLP (HEK293 and E. coli pooled)
# T3 construct: also called huTSLP; hu TSLP
# [5] = target: T1, Recombinant human TSLP, expressed in E. …; experiment: KinExA, solution equilibrium, beads coated with biotinylated human TSLP; TSLP from E. coli
# [6] = target: T2, Recombinant human TSLP, expressed in …; experiment: ELISA, mean of the 3 rows above (HEK293-B, HEK293, HEK293-F); mean of n = 3: HEK293-B, HEK293 and HEK293-F human TSLP
# [7] = target: T2, Recombinant human TSLP, expressed in …; experiment: ELISA, TSLP coated on plate, antibody titrated; HEK293-B (biotinylated TSLP)
# Cynomolgus monkey TSLP [8] = target: T4, Cynomolgus monkey TSLP (cynomolgus monkey, UniProt A0A7N9CAT7 29-159); experiment: cell-based or functional assay
# [9] = target: T1, Recombinant human TSLP, expressed in E. …; experiment: cell-based or functional assay
# [10] = target: T2, Recombinant human TSLP, expressed in …; experiment: cell-based or functional assay
# [11] = target: T2, Recombinant human TSLP, expressed in …; experiment: KinExA, solution equilibrium, beads coated with biotinylated human TSLP; TSLP from HEK293
# Cynomolgus monkey TSLP [12] = target: T4, Cynomolgus monkey TSLP; experiment: SPR, BIAcore T100, TSLP amine-coupled to CM5 chip, antibody injected, bivalent analyte model
# [13] = target: T3, Human TSLP (expression host not stated, …); experiment: as above
# Cynomolgus monkey TSLP [14] = target: T4, Cynomolgus monkey TSLP; experiment: SPR, BIAcore T100, as in Example 5 (TSLP immobilized)
# [15] = target: T3, Human TSLP (expression host not stated, …); experiment: as above
# [16] = target: T1, Recombinant human TSLP, expressed in E. …; experiment: KinExA, solution equilibrium, beads coated with biotinylated human TSLP; antigen R&D Systems 1398-TS
# [17] = target: T3, Human TSLP (expression host not stated, …); experiment: cell-based or functional assay
# [18] = target: T3, Human TSLP (expression host not stated, …); experiment: summary of Tables 10 and 11 (BIAcore, KinExA, Ba/F3 assay)
# [19] = target: T3, Human TSLP (expression host not stated, …); experiment: ELISA, mean of all 19 rows on human TSLP (HEK293 and E. coli pooled)
# [20] = target: T1, Recombinant human TSLP, expressed in E. …; experiment: ELISA, mean of the 7 rows above (E. coli, including E. coli-B)
# [21] = target: T2, Recombinant human TSLP, expressed in …; experiment: ELISA, mean of the 12 rows above (HEK293, including HEK293-B and HEK293-F)
# [22] = target: T1, Recombinant human TSLP, expressed in E. …; experiment: ELISA, TSLP coated on plate, antibody titrated; E. coli
# Cynomolgus monkey TSLP [23] = target: T4, Cynomolgus monkey TSLP; experiment: ELISA, mean of the 6 rows above (cyno TSLP from HEK293)
# [24] = target: T2, Recombinant human TSLP, expressed in …; experiment: ELISA, direct coat of 200 ng TSLP instead of 100 ng, antibody titrated; HEK293
# [25] = target: T1, Recombinant human TSLP, expressed in E. …; experiment: ELISA, direct coat of 200 ng TSLP instead of 100 ng, antibody titrated; E. coli
# [26] = target: T3, Human TSLP (expression host not stated, …); experiment: ELISA, mean of the 5 rows above on human TSLP (HEK293 and E. coli pooled)
Binder,EC50 [2],EC50 [3] [nM],Kd [5] [nM],EC50 [7] [nM],Kd [11] [nM],Kd (Cynomolgus monkey TSLP [12]) [nM],Kd [13] [nM],Kd (Cynomolgus monkey TSLP [14]),Kd [15],Kd [16] [nM],"EC50, inhibition of TSLP-induced proliferation of Ba/F3 transfectants; TSLP hu, TSLPR hu [17] [nM]",other results
B1,0.4 nM and 0.39 nM,0.37,0.00047,0.79,0.00022,0.086,0.064,0.086 nM and 0.112 nM,0.064 nM and 0.126 nM and 0.114 nM,–,–,"Kd [1]: 0.00047 nM; EC50 [4]: 0.44 nM; EC50 [6]: 0.47 nM; EC50 (mean of the 4 rows above), inhibition of TSLP-induced proliferation of Ba/F3-TSLPR-IL7Ra cells; TSLP cyno, HEK293 (Cynomolgus monkey TSLP [8]): 0.56 nM; EC50, inhibition of TSLP-induced proliferation of Ba/F3-TSLPR-IL7Ra cells (Alamar Blue); TSLP cyno, HEK293 (Cynomolgus monkey TSLP [8]): 0.45 nM and 0.42 nM and 0.61 nM and 0.77 nM; EC50 (mean of the 8 rows above), inhibition of TSLP-induced proliferation of Ba/F3-TSLPR-IL7Ra cells; TSLP human, E. coli [9]: 3.01 nM; EC50 (mean of the 5 rows above), inhibition of TSLP-induced proliferation of Ba/F3-TSLPR-IL7Ra cells; TSLP human, HEK293 [10]: 0.11 nM"
B2,–,–,–,–,–,–,–,0.114 nM,0.106 nM,0.0014,5.3,–
B3,–,–,–,–,–,–,–,1.16 nM and 2.51 nM,–,0.052,–,"fold reduction in binding against hu23B12 [18]: 5 fold; fold reduction in binding against parental rat 23B12 [18]: 10 fold; EC50, inhibition of TSLP-induced proliferation of Ba/F3 transfectants; TSLP hu, TSLPR cyno [17]: 0.03 nM and 0.05 nM"
B4,–,–,–,–,–,–,–,1.2 nM,0.556 nM,0.063,3.9,–
B5,0.064 nM and 0.085 nM,–,0.0017,0.22,0.0021,0.132,0.111,0.132 nM,0.111 nM,0.0017,7.6,EC50 [19]: 0.11 nM; EC50 [20]: 0.07 nM; EC50 [21]: 0.14 nM; EC50 [22]: 0.11 nM and 0.06 nM; EC50 (Cynomolgus monkey TSLP [23]): 0.31 nM; EC50 [24]: 0.073 nM; EC50 [25]: 0.061 nM and 0.029 nM
B6,0.038 nM and 0.05 nM,0.034,–,0.12,0.001,–,–,–,–,–,–,EC50 [26]: 0.05 nM
